From patent US20060062780A1

How the values were obtained:
[1] = molecular target: MOG-reactive B-cell receptor on B cells of anti-MOG transgenic mice; assay: cell-based or functional assay
[2] = molecular target: MOG-reactive B-cell receptor on B cells of anti-MOG transgenic mice; assay: flow cytometry on splenocytes, goat-anti-human IgG FITC

ex vivo B cell depletion, splenocytes of anti-MOG transgenic mice, 10 µg/ml, 16 h [1]: 70%
percent of IgM-positive splenocytes that bound (% of IgM-positive splenocytes) [2]: > 90
Substance: MOG-Fc fusion protein
